Test results reported in the DeepSol protein solubility set.

Test: soluble on expression in E. coli; label from the status in PepcDB or PDB records

Sequence | soluble on expression in E. coli
MSLELKPKRFLVLDDQLVLRKLISRQASFFTRFAVEIDEFSDPAEALRSIAEGGYHLVITDIGMPGMNGIDFIKNVARLGYQSALLIISGYDGKTLQTIADMSVNLGLSCTRFLSKPYSAEAFVAALNGIFSEMERSEAEGHHHHHH | not soluble
MELPILPTSVIGSYPKPRWLLRMYRLRDLGKIPEEDFKEAVKDASVSVLREHERAGVDIPWDGEMWRTEMTEHFTAKIGGFKFYGPVRVWGNAYFNKAAAVDKLEYKEPLVLEEFLWVKKNTTREVVKIPITGPYTIAEWSFNEYYPDKESFIMDLAKIINKELKMLENHGALYIQLDEPAMLNHPDEVPLAVEAINKAVKGIKIKVGLHVCYSNYYLLADYFDEIRVTQFALEFANRQFRDMDFLKKLSNKELGFGVVDVHNPRIESVEEIVKAIKKVFEYVEPELLYINPDCGMKLLDRNIAYNKLVNMVKATELVRKELEREGKKTTEFRTLKDILEHHHHHH | not soluble
MSAKEVDFERESHLHAVMCFLTGQSGEKIVSIYPHRKPATKAPSKDPQPSSSNPGQCVKPVLTSVKDPSYGFGRVDTEFDMSLGMLAYVFKTQEIACNDGFDMKINNQRFVAYPKTWKARGESTNYQISIVFALKNGCEQHTASAYQTLSNKIAVSLVMLQNYFGFLEREDKWADNAEEPNKDHPLEEFAKTSFIVQPLAEMFEEVRNRGNIHKYLINFVELGFCDEAHALTKLNVVPKGRQEIDEIVRKMKPYHGILLLEDVWPTPDANPIVAKLLSHCSPDRSILDMSTASGIPIFEVFMIIRHLLQWTRAILIYPLCNTNIYTSATSPQPLDKMAEKFTAQFGNTIHLAAGLAHFNPPKTLDTFIRKNLPLHEQGVRAKLVVALLRHQMLMQLHQFYYILKPYSIAILPEPKEPCPAEFTKIIEESTLPNDVKGVVADICAEMLETTSYASVKRTLSLFVKVAPMMDGNHHLEEIKYKNNLDRTEIEGVFVSFKLVIATFRRPDFVAE | not soluble
MVSFVNCRSQIKTNMQEQNNPLLCNPESGFCEMPSIKPDTAHQADLKSDKKPVKVIYYTDPICSSCWGIEPQLRKLKLEYGTSIDIEYRMGGLLPDWSYNSGGISKPSDVAHHWDEVSVYYDMPIDGGVWLEDPLPSSYPPSIAFKAVQIQSTERAILFLREIREMVFLQKKNIAKWEHLEQAAKNTGVNIEQFKKDYEGRAKDLFYADLKLARDLGVHGFPTMIFSDSTGKNETVYGYKPYAVFENTIAGLYPSVQKYTYDKSIAAVFSTFHSLTAKEFSELTGVARNQSEQMLDEYVKQGMLQKWTTKNGSLWSLKK | not soluble
MGHHHHHHSHRRERACPERALDLENIMRKFSGSCRCCAKQIKFYRMRHHYKSCKKYQDEYGVSSIIPNFQISQDSVGNSNRSETSTSDNTETYQENTSSSGHPTFKCPLCQESNFTRQRLLDHCNSNHLFQIVPVTCPICVSLPWGDPSQITRNFVSHLNQRHQFDYGEFVNLQLDEETQYQTAVEESFQVNI | not soluble
MSLSAHVEYFKPPAESELPDNAYGKLVREGYALFVDTKRLAPQFVGNGLNCSNCHLDQGRLANSAPLWGAYPMYPAYRKKNDKVNTFAERLQGCFQFSMNGGKPPAADSPQITALSVYAYWLASKAPLGVELPGRGYPDVAQPAKGYDLKQGAAVYQAQCAVCHGDNGQGQKAGADYVMPPLWGKDSYNWGAGMHRINTAASFIKHNMPLGKGGSLSDQQAWDVAAFVNSHERPQDPRLVEGSIEKTRVKFHANDGVNLYGQTVEGVLIGQGIREGHHHHHH | not soluble
MAAHSSAGLLDYVFPTIVSEYYNQAPTKEGYRFASEEPNGSKREEMGVIMNPGTPDEQLVVMGMYSSYDEKTDTETVTMYTADKDGYKARYQIKNRKLSPGALKSAAGLEHHHHHH | not soluble
MSEITIGVLSLQGDFEPHINHFIKLQIPSLNIIQVRNVHDLGLCDGLVIPGGESTTVRRCCAYENDTLYNALVHFIHVLKKPIWGTCAGCILLSKNVENIKLYSNFGNKFSFGGLDITICRNFYGSQNDSFICSLNIISDSSAFKKDLTAACIRAPYIREILSDEVKVLATFSHESYGPNIIAAVEQNNCLGTVFHPELLPHTAFQQYFYEKVKNYKYSLEHHHHHH | soluble
MSAAPLVGYSSSGSEDESEDGMRTRPGDGSHRRGQSPLPRQRFPVPDSVLNMFPGTEEGPEDDSTKHGGRVRTFPHERGNWATHVYVPYEAKEEFLDLLDVLLPHAQTYVPRLVRMKVFHLSLSQSVVLRHHWILPFVQALKARMTSFHRFFFTANQVKIYTNQEKTRTFIGLEVTSGHAQFLDLVSEVDRVMEEFNLTTFYQDPSFHLSLAWCVGDARLQLEGQCLQELQAIVDGFEDAEVLLRVHTEQVRCKSGNKFFSMPLK | soluble
